Test results: publication PMC4169570, “Acyl-Homoserine Lactone Recognition and Response Hindering the Quorum-Sensing Regulator EsaR”

Columns and labels:
Conditions in all cases: protein: recombinant; tags: N-terminal His6-MBP-TEV-Gly5; chain copies: 2; label: 5' TAMRA on strand 1; blunt
HMGE A32V [1] = molecular target: T1, HMGE A32V (Pantoea stewartii subsp. stewartii, UniProt P54293 1-249, A32V); assay: fluorescence anisotropy; 1 uM AHL; 150 mM NaCl, 6 mM HEPES, 17.5 mM Tris, 3% glycerol, pH 7.6, 25 C, 20 min; 3 nM T-esabox, 0-100 nM protein
T1 sequence: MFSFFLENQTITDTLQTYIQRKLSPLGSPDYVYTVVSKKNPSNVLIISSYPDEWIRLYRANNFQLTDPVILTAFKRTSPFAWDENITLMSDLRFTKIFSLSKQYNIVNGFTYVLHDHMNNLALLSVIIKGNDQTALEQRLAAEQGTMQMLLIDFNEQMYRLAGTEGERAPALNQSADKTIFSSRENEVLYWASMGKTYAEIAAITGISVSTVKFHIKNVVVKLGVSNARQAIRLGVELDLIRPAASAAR

HMGE F94Y [2] = molecular target: T2, HMGE F94Y (Pantoea stewartii subsp. stewartii, UniProt P54293 1-249, F94Y); assay: as above
T2 sequence: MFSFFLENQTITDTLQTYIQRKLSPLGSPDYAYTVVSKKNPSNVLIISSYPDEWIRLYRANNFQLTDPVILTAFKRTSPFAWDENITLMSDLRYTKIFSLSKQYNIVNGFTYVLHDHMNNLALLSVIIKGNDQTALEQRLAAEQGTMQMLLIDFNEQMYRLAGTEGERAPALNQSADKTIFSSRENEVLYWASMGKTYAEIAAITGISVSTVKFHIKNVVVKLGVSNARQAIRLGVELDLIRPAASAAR

[3] = molecular target: T3, HMGE (His6-MBP-TEV-Gly5-EsaR wild type) (Pantoea stewartii subsp. stewartii, UniProt P54293 1-249); assay: as above
T3 sequence: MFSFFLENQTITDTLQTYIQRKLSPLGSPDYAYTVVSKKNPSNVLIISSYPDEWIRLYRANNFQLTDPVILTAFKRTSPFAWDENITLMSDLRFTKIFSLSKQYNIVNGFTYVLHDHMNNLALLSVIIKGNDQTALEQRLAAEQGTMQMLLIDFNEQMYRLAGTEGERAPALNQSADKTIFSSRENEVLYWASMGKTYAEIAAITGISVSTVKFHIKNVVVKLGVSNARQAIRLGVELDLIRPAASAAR

HMGE D83E [4] = molecular target: T4, HMGE D83E (Pantoea stewartii subsp. stewartii, UniProt P54293 1-249, D83E); assay: as above
T4 sequence: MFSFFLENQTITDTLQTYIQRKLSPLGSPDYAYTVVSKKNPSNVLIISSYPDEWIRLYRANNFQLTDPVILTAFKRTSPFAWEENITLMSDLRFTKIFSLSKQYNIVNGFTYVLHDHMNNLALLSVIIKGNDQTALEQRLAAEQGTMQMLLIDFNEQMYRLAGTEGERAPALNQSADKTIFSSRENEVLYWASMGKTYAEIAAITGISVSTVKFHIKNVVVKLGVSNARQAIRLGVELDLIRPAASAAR

HMGE A32V [5] = molecular target: T1, HMGE A32V; assay: fluorescence anisotropy; no AHL; 150 mM NaCl, 6 mM HEPES, 17.5 mM Tris, 3% glycerol, pH 7.6, 25 C, 20 min; 3 nM T-esabox, 0-100 nM protein
HMGE F94Y [6] = molecular target: T2, HMGE F94Y; assay: as above
[7] = molecular target: T3, HMGE (His6-MBP-TEV-Gly5-EsaR wild type); assay: as above
HMGE D83E [8] = molecular target: T4, HMGE D83E; assay: as above

B1: T-esabox (PesaR28 TAMRA/PesaR28R) (dsDNA)
DNA 1: TCTTGCCTGTACTATAGTGCAGGTTAAG
DNA 2: CTTAACCTGCACTATAGTACAGGCAAGA
- Kd (HMGE A32V [1]): 2.33 ± 1.06 nM
- Kd (HMGE F94Y [2]): 2.65 ± 1.03 nM
- Kd [3]: 6.19 ± 1.31 nM
- Kd (HMGE D83E [4]): 2.91 ± 0.58 nM
- Kd (HMGE A32V [5]): 2.18 ± 0.73 nM
- Kd (HMGE F94Y [6]): 3.26 ± 0.93 nM
- Kd [7]: 3.11 ± 0.33 nM
- Kd (HMGE D83E [8]): 4.01 ± 1.13 nM
